One test addresses T1, MBP-PspA-BAA658-S4 (Streptococcus pneumoniae strain BAA-658).
T1 construct: Tested as cleared E. coli lysate coated on ELISA plates; also called MBP-BAA658(S4)
The test is described as follows: ELISA on plates coated with E. coli lysate holding the MBP-tagged fragment, antibody at 1 μg/mL.

In test [1] the target is T2, synthetic peptide BAA658-PR2 (Streptococcus pneumoniae strain BAA-658, SMILES …).
T2 peptide: {Biotin-Ahx}-TPAPAPKPEQPAEQPK-NH2
Kind of test: ELISA, biotinylated peptide on NeutrAvidin plates.

Test [2] has as its target T3, synthetic peptide BAA658-PR1 (Streptococcus pneumoniae strain BAA-658, SMILES …).
T3 peptide: {Biotin-Ahx}-PEKPAEETPAPAPKPEQ-NH2
Kind of test: ELISA, biotinylated peptide on NeutrAvidin plates.

Test [3] addresses T4, synthetic peptide BAA658-PR3 (Streptococcus pneumoniae strain BAA-658, SMILES …).
T4 peptide: {Biotin-Ahx}-EQPAEQPKPAPAPQP-NH2
Kind of test: ELISA, biotinylated peptide on NeutrAvidin plates.

Test [4] has as its target T5, synthetic peptide BAA658-PR1.2 (Streptococcus pneumoniae strain BAA-658, SMILES …).
T5 peptide: {Biotin-Ahx}-PEKPAEETPAPAPKPEQPA-NH2
The test is described as follows: ELISA, biotinylated peptide on NeutrAvidin plates.

Test [5] concerns the target T6, synthetic peptide BAA658-PR4 (Streptococcus pneumoniae strain BAA-658, SMILES …).
T6 peptide: {Biotin-Ahx}-KPAPAPQPAPAPKPE-NH2
Kind of test: ELISA, biotinylated peptide on NeutrAvidin plates.

The target in a further test is T7, MBP-PspA-BAA658-FL (Streptococcus pneumoniae strain BAA-658).
T7 construct: Tested as cleared E. coli lysate coated on ELISA plates; also called full BAA-658 peptide; strain BAA-658 FL
Kind of test: ELISA on plates coated with E. coli lysate holding the MBP-tagged protein, antibody at 1 μg/mL.

Test [6] deals with T8, MBP-PspA-BAA658-S3 (Streptococcus pneumoniae strain BAA-658).
T8 construct: Tested as cleared E. coli lysate coated on ELISA plates; also called MBP-BAA658(S3)
Kind of test: ELISA on plates coated with E. coli lysate holding the MBP-tagged fragment.

The target of a further test is T9, MBP-PspA-BAA658-S1 (Streptococcus pneumoniae strain BAA-658).
T9 construct: Tested as cleared E. coli lysate coated on ELISA plates; also called MBP-BAA658(S1)
Described as above.

The next test has as its target T10, MBP-PspA-BAA658-S2 (Streptococcus pneumoniae strain BAA-658).
T10 construct: Tested as cleared E. coli lysate coated on ELISA plates; also called MBP-BAA658(S2)
Described as above.

For test [7], the target named is T8, MBP-PspA-BAA658-S3. The test is described as follows: ELISA on plates coated with E. coli lysate holding the MBP-tagged fragment, antibody at 1 μg/mL.
Test [8] deals with T11, recombinant PspA-D39 with C-terminal His-tag (Streptococcus pneumoniae strain D39).
T11 construct: Made in E. coli BL21(DE3), purified on Ni Sepharose; immobilized on a CM5 chip in the SPR assay; also called pelB-PspA(D39)-His; PspA-6xHis (D39)
T11 chain: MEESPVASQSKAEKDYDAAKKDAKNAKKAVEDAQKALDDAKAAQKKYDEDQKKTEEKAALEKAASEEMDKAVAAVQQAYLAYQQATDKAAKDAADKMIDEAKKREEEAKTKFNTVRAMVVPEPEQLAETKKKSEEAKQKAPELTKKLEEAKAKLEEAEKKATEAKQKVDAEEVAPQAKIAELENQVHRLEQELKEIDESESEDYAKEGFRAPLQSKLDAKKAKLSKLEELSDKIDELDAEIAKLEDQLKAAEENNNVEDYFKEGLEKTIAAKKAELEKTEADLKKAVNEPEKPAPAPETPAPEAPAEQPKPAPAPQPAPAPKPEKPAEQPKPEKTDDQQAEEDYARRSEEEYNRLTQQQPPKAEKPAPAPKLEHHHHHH
The test is described as follows: SPR, Biacore 3000, PspA immobilized on CM5 chip, antibody as analyte, bivalent binding model (KD1 = kd1/ka1).

Test [9] has as its target T12, recombinant PspA-TIGR4 with C-terminal His-tag (Streptococcus pneumoniae strain TIGR4).
T12 construct: Made in E. coli BL21(DE3), purified on Ni Sepharose; immobilized on a CM5 chip in the SPR assay; also called pelB-PspA(TIGR4)-His
T12 chain: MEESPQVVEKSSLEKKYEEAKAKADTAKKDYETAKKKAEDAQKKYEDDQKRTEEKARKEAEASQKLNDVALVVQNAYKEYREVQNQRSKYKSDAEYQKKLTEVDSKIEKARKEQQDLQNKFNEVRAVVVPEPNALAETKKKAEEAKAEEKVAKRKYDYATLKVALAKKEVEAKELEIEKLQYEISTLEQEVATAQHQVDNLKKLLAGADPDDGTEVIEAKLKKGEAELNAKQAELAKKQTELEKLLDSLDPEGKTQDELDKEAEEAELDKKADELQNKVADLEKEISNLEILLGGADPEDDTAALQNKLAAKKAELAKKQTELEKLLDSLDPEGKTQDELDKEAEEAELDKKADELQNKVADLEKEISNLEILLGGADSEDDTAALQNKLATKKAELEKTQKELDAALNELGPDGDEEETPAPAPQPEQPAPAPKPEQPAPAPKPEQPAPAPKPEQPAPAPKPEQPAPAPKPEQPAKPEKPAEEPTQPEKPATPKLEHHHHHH
The description is as above.

Another test has as its target recombinant PspA-BAA658 (Streptococcus pneumoniae strain BAA-658). The test is described as above.
For test [10], the target named is T4, synthetic peptide BAA658-PR3. Kind of test: ELISA, biotinylated peptide on NeutrAvidin plates, antibody at 1 μg/mL.
For test [11], the target named is T6, synthetic peptide BAA658-PR4. The test is described as above.
Test [12] has as its target T2, synthetic peptide BAA658-PR2. The description is as above.
Test [13] concerns the target T5, synthetic peptide BAA658-PR1.2. Described as above.

*: point of attachment. Biotin = O=C1N[C@H]2[C@H](CS[C@H]2CCCCC(=O)*)N1; Ahx = NCCCCCC(=O)O

B1: anti-PspA mouse monoclonal antibody 140G1 (antibody, V domains shown)
VH: QVQLKESGPGLVAPSQSLSITCTVSGFSLIGYGVNWVRQPPGKGLEWLGMIWGDGSTDYNLVLKSRLSINKDNSKSQVFLQMNSLQTDDTARYYCARGPQWGFAYWGQGTLVSVSA
VL: DIVMSQSPSSLAVSAGEKVTMSCKSSQSLLNSRTRKNYLAWYQQKPGQSPKLLIYWASTRESGVPDRFTGSGSGTDFTLTISSVQAEDLAVYYCKQSYNLPTFGGGTKLEIK
notes: Hybridoma antibody, mouse IgG1, kappa, raised against PspA-D39; also called clone 140G1
As to B1, the binding result is listed as “binds” with MBP-PspA-BAA658-S4; “no binding (tested: 1 μg/mL)” in test [1]; “no binding (tested: 1 μg/mL)” in test [2]; “no binding (tested: 1 μg/mL)” in test [3]; “no binding (tested: 1 μg/mL)” in [4]; “no binding (tested: 1 μg/mL)” in test [5]. The binding result with MBP-PspA-BAA658-FL is listed as “binds”; with MBP-PspA-BAA658-S3 [6], “no binding (tested: 1 μg/mL)”; with MBP-PspA-BAA658-S1, “no binding (tested: 1 μg/mL)”; in the test with MBP-PspA-BAA658-S2, “no binding (tested: 1 μg/mL)”.

B2: anti-PspA mouse monoclonal antibody 140G11 (antibody, V domains shown)
VH: QVQLKESGPGLVAPSQSLSITCTVSGFSLTGYGVNWVRQPPGKGLEWLGMIWGDGSTDYNSALKSRLSISKDNSKSQVFLKMNSLQTDDTARYYCARGPQWGFAYWGQGTLVTVSA
VL: DIVMSQSPSSLAVSAGEKVTMSCKSSQSLLNSRTRKNYLAWYQQKPGQSPKLLIYWASTRESGVPDRFTGSGSGTDFTLTISSVQAEDLAVYYCKQSYNLPTFGGGTKLEIK
notes: Hybridoma antibody, mouse IgG2a, kappa, raised against PspA-D39; also called clone 140G11
Turning to B2, the binding result (in [1]; in test [2]; in [3]; in [4]; in test [5]; in the test with MBP-PspA-BAA658-S3 [6]) was “no binding (tested: 1 μg/mL)” each time. Moreover, the binding result with MBP-PspA-BAA658-S1 and with MBP-PspA-BAA658-S2 was “no binding (tested: 1 μg/mL)” in each case.

B3: anti-PspA mouse monoclonal antibody 140H1 (antibody, V domains shown)
VH: QIQLVQSGPELKKPGETVRISCKASGYTFTTAGMQWVQKVPGKGLQWIGWINTHSGVPTYAEDFKGRIAFSLETSASAAYLQISNLKDEDTATYFCGRSGTGYAMDYWGQGTSVIVSS
VL: DTVMSQSPSSLVVSVGEKVSMSCKSSQNLLYTNNQKNYLAWYQQKPGQSPKLLIYWASTRESGVPDRFTGSGSGTDFTLTITSVKAEDLAVYYCQQYYTYPYTFGGGTKLEIK
notes: Hybridoma antibody, mouse IgG1, kappa, raised against PspA-D39; also called clone 140H1
On to B3, for which the binding result (in the test with MBP-PspA-BAA658-S3 [7]; with MBP-PspA-BAA658-S4; in test [10]; in test [11]; in the test with MBP-PspA-BAA658-FL) was “binds” each time. Besides, the Kd (in [8]; in [9]; with recombinant PspA-BAA658) was below 100 nM throughout.

B4: anti-PspA mouse monoclonal antibody 139G3 (antibody, V domains shown)
VH: EVQLQQSGTEVVKPGASVKLSCTASGFNIKDTYIHWVKKRPEQGLEWIGRIDPANGNTRYDPKFQGKATMTADTSSNTAYLQVSSLTSEDTAVYYCSRSDKFVWFAYWGQGTLVTVSA
VL: DIVLTQSPVSLTVYMGQRATISCRASQSVSTSSYNYIHWFQQKPGQPPKLLIKYASTLESGVPARFSGGGSGTDFTLNIHPVEEEDAATYSCQHSWEIPYTFGGGTKLEIK
notes: Hybridoma antibody, mouse IgG2a, kappa, raised against PspA-TIGR4; also called clone 139G3
As to B4, the binding result (with MBP-PspA-BAA658-S3 [7]; in the test with MBP-PspA-BAA658-S4; in test [12]; in [13]; in the test with MBP-PspA-BAA658-FL) was “binds” in each case.

The record behind these values is patent WO2014027697A1 (dated 2014).
